The values below come from patent US20260109770A1 (REMD BIOTHERAPEUTICS, published 2026).

Assay [1] concerns the target T1, human C-C chemokine receptor type 8 (hCCR8) (human, UniProt P51685 1-355). Briefly: cell-based or functional assay.
In assay [2] the target is T1, human C-C chemokine receptor type 8 …. Description: cell-based or functional assay. The source holds these as a separate data set.
Assay [3] shares this target. Briefly: KinExA, hCCR8-expressing HEK293 cells. Here is the method:
(§1) Humanized antibodies 504E12D8D12-HC1+LC1 and 504E12D8D12-HC1+LC1 (G34A) were tested by the Kinetic Exclusion Assay (KinExA, Sapidyne Instruments) to determine the affinity of binding to hCCR8-overexpressing cells. Briefly, polystyrene particles (#442178, Sapidyne Instruments) were coated with goat anti-human IgG Fc-specific Fab fragment (#109-007-008, Jackson ImmunoResearch Lab) according to the manufacturer's protocol. The antibodies were incubated with serial dilutions of hCCR8-expressing HEK293 cells at room temperature overnight by gently rotating to achieve equilibrium. The final antibody concentrations were adjusted to 0.05 nM and 1 nM, respectively. The supernatants were collected and run on KinExA 3200 (Sapidyne Instruments), and the antibody was captured by the coated polystyrene particles. The captured antibody was detected with Alexa Fluor 647-conjugated goat anti-human IgG (H+L) antibody (#109-605-003, Jackson ImmunoResearch Lab). Data was recorded and analyzed using KinExA Pro software (version 4.3.20).

The target in assay [4] is T2, biotinylated recombinant human CTLA-4-Fc chimera (#786704, BioLegend) (human, UniProt P16410 37-162, biotinylated).
T2 construct: Bought reagent; Fc part of the bought chimera not given
T2 sequence (looked up): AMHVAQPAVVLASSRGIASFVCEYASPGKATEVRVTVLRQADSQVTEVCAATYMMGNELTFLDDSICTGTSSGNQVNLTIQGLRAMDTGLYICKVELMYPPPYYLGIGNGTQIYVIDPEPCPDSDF
Description: flow cytometry: hCCR8-expressing HEK293 cells pre-loaded with the antibody, washed, incubated with biotinylated human CTLA-4-Fc, detected with PE-streptavidin [panel B]. Here is the method: (§2) Bispecific antibodies FP578-01 and FP578-02 and anti-hCCR8 antibodies 504E12D8D12-HC1+LC1 (G34A) and 504E12D8D12-HC1+LC1 were incubated with hCCR8-expressing HEK293 cells for 1 hour at 4° C. The cells were washed and then incubated with biotinylated recombinant human CTLA-4-Fc chimera (#786704, BioLegend) for 1 hour at 4° C. After the cells were thoroughly washed, CTLA-4 was detected with phycoerythrin (PE)-conjugated streptavidin (#405203, BioLegend) by flow cytometry.
On the technique in general: Flow cytometry measures light scatter and fluorescence of single cells or particles in a stream.

For assay [5], the target named is T2, biotinylated recombinant human …. Briefly: flow cytometry: hCCR8-expressing HEK293 cells pre-loaded with the antibody, washed, incubated with biotinylated human CTLA-4-Fc, detected with PE-streptavidin [panel A]. The method, then: as §2
Assay [6] has as its target T1, human C-C chemokine receptor type 8 …. Description: cell-based or functional assay. This is another data set of the same source.
For assay [7] the target is unchanged. Description: KinExA, hCCR8-expressing cells. The method, then: as §1
The affinity of bispecific antibodies FP578-01 and FP578-02 were determined by the kinetic exclusion assay as described above.

Assay [8] concerns the target T2, biotinylated recombinant human …. Description: flow cytometry: hCCR8-expressing HEK293 cells pre-loaded with the antibody, washed, incubated with biotinylated human CTLA-4-Fc, detected with PE-streptavidin [panel C]. The method, then: as §2
Assay [9] shares this target. Description: flow cytometry: hCCR8-expressing HEK293 cells pre-loaded with the antibody, washed, incubated with biotinylated human CTLA-4-Fc, detected with PE-streptavidin [panel D]. The method, then:
as §2

Assay [10] concerns the target T1, human C-C chemokine receptor type 8 …. Description: cell-based or functional assay. The source holds these as a separate data set.
The target is the same in assay [11]. Briefly: cell-based or functional assay. The source holds these as a separate data set.
In assay [12] the target is T3, human CCR4 (hCCR4) (human, UniProt P51679 1-360).
T3 construct: whole, on cells
T3 sequence (looked up): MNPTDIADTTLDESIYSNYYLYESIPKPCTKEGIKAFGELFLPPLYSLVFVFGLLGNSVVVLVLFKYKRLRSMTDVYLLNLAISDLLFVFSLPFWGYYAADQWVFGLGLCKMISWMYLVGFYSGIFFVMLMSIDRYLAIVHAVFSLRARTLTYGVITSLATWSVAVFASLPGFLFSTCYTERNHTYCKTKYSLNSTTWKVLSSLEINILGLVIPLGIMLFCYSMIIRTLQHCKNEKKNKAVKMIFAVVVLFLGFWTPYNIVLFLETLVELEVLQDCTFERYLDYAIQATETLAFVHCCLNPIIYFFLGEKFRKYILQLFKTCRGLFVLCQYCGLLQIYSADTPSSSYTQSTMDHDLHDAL
Description: flow cytometry on hCCR4-expressing CHO-K1 cells against parental CHO-K1 cells. Here is the method:
The antibodies were further screened for binding to human CCR4 (hCCR4) by flow cytometry. The antibodies were incubated with CHO-K1 cells and hCCR4-expressing CHO-K1 cells for 60 minutes at 4° C. The cells were washed thoroughly with PBS buffer and were then incubated with FITC-conjugated goat anti-mouse IgG Fc antibody or anti-human IgG Fc antibody. Mean Fluorescence Intensity (MFI) of antibody binding on the cells were analyzed by flow cytometry (Table 7).

Read-outs that look alike come from different tables or passages of the source.

T1 sequence (P51685 whole entry): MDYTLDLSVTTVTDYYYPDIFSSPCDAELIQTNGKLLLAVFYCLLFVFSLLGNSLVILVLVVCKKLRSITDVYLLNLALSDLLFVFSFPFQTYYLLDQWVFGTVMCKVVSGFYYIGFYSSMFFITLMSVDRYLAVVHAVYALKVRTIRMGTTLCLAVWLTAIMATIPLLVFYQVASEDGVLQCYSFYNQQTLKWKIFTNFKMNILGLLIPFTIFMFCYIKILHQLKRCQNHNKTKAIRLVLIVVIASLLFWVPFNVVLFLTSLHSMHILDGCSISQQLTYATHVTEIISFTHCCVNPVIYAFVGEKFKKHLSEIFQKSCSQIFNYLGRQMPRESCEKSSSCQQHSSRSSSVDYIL

B1: humanized antibody 41E1C2A5-HC3+LC4 (antibody, human IgG1, kappa, V domains shown)
VH: EVQLVESGGGLVQPGGSLKLSCAASGFSFNAYAMNWVRQASGKGLEWVARIRSKSNNYATYYADSVKDRFTISRDDSKNTAYLQMNSLKTEDTAVYFCVRGGTYGSSSYFDYWGQGTTVTVSS
VL: DIVMTQSPLSLPVTPGEPASIPCRSSKSLLHSNGNTYLYWFLQKPGQSPQLLIYRMSNLASGVPDRFSGSGSGTAFTLKISRVEAEDVGVYYCMQHLEYPFTFGGGTKLEIKR
For the molecule B1, the “IC50 (nM), antagonist activity measured by calcium flux assay” value (from here on “IC50 (nM) … by calcium flux assay”) in assay [1] is 25.3 nM.

B2: humanized antibody 504E12D8D12-HC1+LC1 (antibody, human IgG1, kappa, V domains shown)
VH: EVQLVESGGGLVQPGGSLKLSCAASGFSFNTYAMNWVRQASGKGLEWVGRIRTKSNNYATYYAASVKDRFTISRDDSKNTAYLQMNSLKTEDTAVYYCTRGGSGLNYVRYFDVWGQGTTVTVSS
VL: DIVMTQTPPSLPVNPGEPASISCRSSKSLLHSNGNTYLYWYLQKPGQSPQLLIYRMSNLASGVPDRFSGSGSGSDFTLKISWVEAEDVGVYYCMQHLEYPFTFGGGTKLEIKR
As for B2, the “IC50 (nM) … by calcium flux assay” value in [2] worked out at 8.6 nM. In assay [3], this molecule returned an equilibrium dissociation constant (Kd) of 0.072 nM. Also, in assay [4], the binding result is recorded as “no binding”.

B3: humanized antibody 41E1C2A5-HC4+LC2 (antibody, human IgG1, kappa, V domains shown)
VH: EVQLVESGGGLVQPGGSLKLSCAASGFSFNAYAMNWVRQASGKGLEWVARIRSKSNNYATYYADSVKDRFTISRDDSENTAYLQMNSLKTEDTAVYFCVRGGTYGSSSYFDYWGQGTTVTVSS
VL: DIVMTQSPLSLPVTPGEPASISCRSSKSLLHSNGNTYLYWFLQKPGQSPQLLIYRMSNLASGVPDRFSGSGSGTAFTLKISRVEAEDVGVYYCMQHLEYPFTFGGGTKLEIKR
As to B3, the “IC50 (nM) … by calcium flux assay” value in [1] was found to be 13.1 nM.

B4: humanized antibody 504E12D8D12-HC1+LC1(G34A) (antibody, human IgG1, kappa, V domains shown)
VH: EVQLVESGGGLVQPGGSLKLSCAASGFSFNTYAMNWVRQASGKGLEWVGRIRTKSNNYATYYAASVKDRFTISRDDSKNTAYLQMNSLKTEDTAVYYCTRGGSGLNYVRYFDVWGQGTTVTVSS
VL: DIVMTQTPPSLPVNPGEPASISCRSSKSLLHSNANTYLYWYLQKPGQSPQLLIYRMSNLASGVPDRFSGSGSGSDFTLKISWVEAEDVGVYYCMQHLEYPFTFGGGTKLEIKR
Take B4: the “IC50 (nM) … by calcium flux assay” value in [2] stood at 14.4 nM. In [3], this molecule came in with a Kd of 0.072 nM. For the same molecule, in assay [5], the binding result is recorded as “no binding”.

B5: bispecific antibody FP578-01 (CCR8/CTLA-4) (bispecific antibody, human IgG1, kappa)
heavy: not shown
light: DIVMTQTPPSLPVNPGEPASISCRSSKSLLHSNANTYLYWYLQKPGQSPQLLIYRMSNLASGVPDRFSGSGSGSDFTLKISWVEAEDVGVYYCMQHLEYPFTFGGGTKLEIKRTVAAPSVFIFPPSDEQLKSGTASVVCLLNNFYPREAKVQWKVDNALQSGNSQESVTEQDSKDSTYSLSSTLTLSKADYEKHKVYACEVTHQGLSSPVTKSFNRGEC
On to B5, for which the “IC50 (nM), antagonist activity measured by β-arrestin assay” value (“IC50 (nM) … by β-arrestin assay” for short) in assay [6] was determined as 4.26 nM. In addition, in assay [7], binding was put at a Kd of 0.102 nM. For the same molecule, the binding result in assay [8] was “binds”.

B6: bispecific antibody FP578-02 (CCR8/CTLA-4) (bispecific antibody, human IgG1, kappa)
heavy: not shown
light: DIVMTQTPPSLPVNPGEPASISCRSSKSLLHSNGNTYLYWYLQKPGQSPQLLIYRMSNLASGVPDRFSGSGSGSDFTLKISWVEAEDVGVYYCMQHLEYPFTFGGGTKLEIKRTVAAPSVFIFPPSDEQLKSGTASVVCLLNNFYPREAKVQWKVDNALQSGNSQESVTEQDSKDSTYSLSSTLTLSKADYEKHKVYACEVTHQGLSSPVTKSFNRGEC
For the molecule B6, the “IC50 (nM) … by β-arrestin assay” value in assay [6] was determined as 3.6 nM. Moreover, the affinity in assay [7], expressed as Kd, was 0.104 nM. Further, the binding result in [9] is recorded as “binds”.

B7: murine-human chimeric (human IgG1) antibody 531B9B1C9 (antibody, V domains shown)
VH: EVQLVESGGGLVQPKGSLKLSCAASGFSFNAYAMNWVRQAPGKGLDWVARIRSKSNNYATYYADSVKDRFTISRDDSESMLYLQMNNLKTEDTAMYFCVRQTYGSRDYAMDYWGQGTSVTVSS
VL: DVVMTQTPLSLPVSLGDQASISCRSSQSLVHSNGNTYLHWYLQKPGQSPKLLIYKVSNRFSGVPDRFSGSGSGTDFTLKISRVEAEDLGVYFCCQSTHVPPYTFGGGTKLEIKR
notes: Chimeric antibody derived from murine antibody A13 and human IgG1
With B7, in assay [10], the “IC50 (nM) … by β-arrestin assay” value came out at 2.18 nM. Besides, the “EC50 of ADCC activity (column head prints IC50 (nM)); ADCC/NFAT-reporter-Jurkat bioassay” value in assay [11] turned out to be 0.028 nM. Moreover, the binding result in assay [12] was “no binding”.

The term Kd denotes the equilibrium constant for the complex coming apart. A high value points to a looser complex.
